Experimental data reported in patent publication US11214614B2, “LTBP complex-specific inhibitors of TGFβ and uses thereof” (Scholar Rock, Inc., priority 2019, dated 2022).
Positions count from the first letter of the chain named.

B1: SR-AB22: second-round (CDR-H3 mutagenesis) antibody, lineage SR-AB14; CDRs SEQ ID NO: 108-113 (antibody, V domains shown)
VH: QVQLVESGGGVVQPGRSLRLSCAASGFTFRSYVMHWVRQAPGKGLEWVAVISHEGSLKYYADSVKGRFTISRDNSKNTLYLQMNSLRAEDTAVYYCAVPRIAARRGGFGYWGQGTLVTVSS
VL: NFMLTQPHSVSESPGKTVTISCTRSSGNIDNNYVQWYQQRPGSSPTTVIYEDNQRPSGVPDRFSGSIDSSSNSASLTISGLKTEDEADYYCQSYDSDNQGVVFGGGTKLTVL
B2: SR-AB23: second-round (CDR-H3 mutagenesis) antibody, lineage SR-AB14; CDRs SEQ ID NO: 116-121 (antibody, V domains shown)
VH: B1 VH with V98R
VL: B1 VL

What was measured:
proTGFβ1 C4S = proTGFβ1 C4S (Homo sapiens, UniProt P01137, C33S); assay: Octet binding of immobilized cycle 2 antibodies to C4S antigen; settings: antibody immobilized (loading sample)
Sequence of proTGFβ1 C4S (P01137 30-390 C33S): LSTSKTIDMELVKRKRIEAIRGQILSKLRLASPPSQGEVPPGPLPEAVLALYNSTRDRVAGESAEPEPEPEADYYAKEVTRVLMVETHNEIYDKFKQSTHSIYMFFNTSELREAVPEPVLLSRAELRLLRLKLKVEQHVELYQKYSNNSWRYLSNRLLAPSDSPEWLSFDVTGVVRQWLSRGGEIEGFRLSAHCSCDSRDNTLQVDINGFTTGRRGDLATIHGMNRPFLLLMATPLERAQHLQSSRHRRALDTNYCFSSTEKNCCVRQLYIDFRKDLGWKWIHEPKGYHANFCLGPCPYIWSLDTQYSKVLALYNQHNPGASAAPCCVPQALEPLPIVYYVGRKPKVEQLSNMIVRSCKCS
Source text: A modified proTGFβ1 complex (proTGFβ1 C4S) in which the cysteine residue at position 4 of the pro-domain has been substituted with a serine residue (described in WO 2014/182676) was used to assess antibody binding to C4S antigen by Octet. Cycle 2 antibodies were immobilized and tested against 3 antigens. As shown in the Tables below, robust antibody binding to LTBP-1 proTGFβ1 antigen (Table 23) and proTGFβ1C4S antigen was observed (Table 24), while binding to LRRC33 proTGFβ1 antigen was not observed (Table 25).

murine LTBP1-proTGFβ1 = target: T1, murine LTBP1-proTGFβ1 (Mus musculus, UniProt P04202+Q8CG19); assay: Murine LTBP overexpression caga assay: LN229 cells co-transfected with mouse LTBP1 and mouse proTGFβ1, CAGA12 reporter cells; assay type: cell-based; settings: overexpressed murine LTBP1-proTGFβ1
T1 construct: expressed in transfected cells; host or cells: LN229
T1 sequence (P04202 30-390): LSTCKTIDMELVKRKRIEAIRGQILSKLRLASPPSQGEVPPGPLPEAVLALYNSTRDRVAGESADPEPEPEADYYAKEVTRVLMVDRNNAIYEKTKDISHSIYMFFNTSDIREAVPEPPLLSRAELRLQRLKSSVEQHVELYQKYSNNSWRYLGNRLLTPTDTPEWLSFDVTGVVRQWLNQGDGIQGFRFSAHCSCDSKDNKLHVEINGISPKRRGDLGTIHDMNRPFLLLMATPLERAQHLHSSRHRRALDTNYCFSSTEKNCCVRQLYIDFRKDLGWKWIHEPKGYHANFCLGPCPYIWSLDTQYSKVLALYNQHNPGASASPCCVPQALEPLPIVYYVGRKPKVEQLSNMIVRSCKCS
T1 sequence (Q8CG19 339-1712 limits assumed): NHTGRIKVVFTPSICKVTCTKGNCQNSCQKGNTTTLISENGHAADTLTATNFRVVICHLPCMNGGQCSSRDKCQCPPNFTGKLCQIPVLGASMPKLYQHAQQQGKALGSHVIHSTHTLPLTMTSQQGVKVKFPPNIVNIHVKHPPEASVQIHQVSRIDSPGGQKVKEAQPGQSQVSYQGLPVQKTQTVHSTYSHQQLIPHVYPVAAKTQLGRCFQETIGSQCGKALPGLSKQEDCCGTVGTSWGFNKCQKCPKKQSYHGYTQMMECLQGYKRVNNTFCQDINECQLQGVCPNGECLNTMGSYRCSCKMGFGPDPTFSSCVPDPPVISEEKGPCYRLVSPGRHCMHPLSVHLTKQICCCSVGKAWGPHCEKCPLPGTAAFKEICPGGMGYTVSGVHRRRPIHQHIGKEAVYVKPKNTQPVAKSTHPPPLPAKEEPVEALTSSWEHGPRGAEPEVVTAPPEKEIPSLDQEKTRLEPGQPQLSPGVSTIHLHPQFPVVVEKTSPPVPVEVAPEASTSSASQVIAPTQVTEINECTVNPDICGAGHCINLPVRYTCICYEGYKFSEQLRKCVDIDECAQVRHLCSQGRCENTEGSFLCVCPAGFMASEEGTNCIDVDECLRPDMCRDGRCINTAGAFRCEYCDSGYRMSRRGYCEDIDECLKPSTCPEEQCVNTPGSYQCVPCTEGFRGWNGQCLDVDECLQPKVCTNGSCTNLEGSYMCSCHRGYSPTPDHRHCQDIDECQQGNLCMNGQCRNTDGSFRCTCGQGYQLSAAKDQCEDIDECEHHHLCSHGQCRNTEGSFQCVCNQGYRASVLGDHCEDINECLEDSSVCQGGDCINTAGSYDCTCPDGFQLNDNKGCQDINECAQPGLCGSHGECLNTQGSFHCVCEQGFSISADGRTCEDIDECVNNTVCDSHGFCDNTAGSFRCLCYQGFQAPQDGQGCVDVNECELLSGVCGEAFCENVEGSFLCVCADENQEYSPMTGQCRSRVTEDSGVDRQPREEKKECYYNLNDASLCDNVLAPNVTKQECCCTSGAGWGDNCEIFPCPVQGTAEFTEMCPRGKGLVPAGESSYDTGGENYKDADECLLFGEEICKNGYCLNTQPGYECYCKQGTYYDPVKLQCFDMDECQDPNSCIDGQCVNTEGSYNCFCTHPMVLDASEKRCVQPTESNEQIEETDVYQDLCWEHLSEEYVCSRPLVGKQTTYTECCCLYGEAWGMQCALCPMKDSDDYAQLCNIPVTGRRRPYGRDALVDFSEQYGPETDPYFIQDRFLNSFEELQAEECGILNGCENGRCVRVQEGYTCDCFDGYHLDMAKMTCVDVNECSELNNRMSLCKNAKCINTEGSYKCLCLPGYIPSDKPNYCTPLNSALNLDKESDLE
Protocol: Additionally, the ability of SR-AB2 to inhibit LTBP1/3-proTGFβ1 in a cell-based assay was also conducted. As essentially described above in Example 2, LN229 cells were seeded on fibronectin pre-coated assay wells and directly transfected with the indicated DNA molecules.
LTBP complex-specific antibodies from the first round of affinity maturation/optimization (i.e., SR-AB14, SR-AB16, SR-AB17, SR-AB18, SR-AB19) were selected for a second round of affinity maturation/optimization (i.e., CDR-H3 mutagenesis as described herein) and particular progeny antibodies (SR-AB20, SR-AB21, SR-AB22, SR-AB23, SR-AB24, SR-AB25, SR-AB26, SR-AB27, SR-AB28, and SR-AB29) were assessed for their ability to inhibit TGFβ activity using LN229 cells. For the assays depicted in FIGS. 13A, 13B, 14A, and 14B the following protocol was used, which is a modified version of Assay II in Example 2. […]
On day 0, prior to cell seeding, assay plates were coated with Fibronectin (LTBP over expression assay only). […] The cell pellet was resuspended in D10 media and viable cells per ml counted. […]

Row | Molecule | Response, binding to human TGFb1 C4S (proTGFβ1 C4S) | Inhibition of TGFβ1 activation (TGFβ activity, luciferase) (murine LTBP1-proTGFβ1)
1 | B1 | 0.2937 nm | improved potency
2 | B2 | 0.2263 nm | improved potency
